Laboratory results as given in patent US20030211537A1.
Non-standard residues stand in square brackets, D forms with d. No end group written: not given here.

Assays:
[1] = target: T1, mouse delta opioid receptor (mORD1) (mouse), P32300; experiment: cell-based or functional assay
T1 chain: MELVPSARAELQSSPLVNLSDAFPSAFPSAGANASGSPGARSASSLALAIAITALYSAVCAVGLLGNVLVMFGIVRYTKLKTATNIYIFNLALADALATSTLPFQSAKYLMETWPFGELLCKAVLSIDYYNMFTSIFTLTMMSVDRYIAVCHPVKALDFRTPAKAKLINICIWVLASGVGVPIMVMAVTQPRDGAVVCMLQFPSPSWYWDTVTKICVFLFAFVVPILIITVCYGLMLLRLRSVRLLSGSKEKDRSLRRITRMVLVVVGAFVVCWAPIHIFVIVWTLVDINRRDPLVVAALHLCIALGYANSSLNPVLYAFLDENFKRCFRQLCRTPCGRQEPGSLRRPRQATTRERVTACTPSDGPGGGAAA

[2] = target: T2, D128N mutant mouse delta opioid receptor (mouse), P32300; experiment: cell-based or functional assay
T2 chain: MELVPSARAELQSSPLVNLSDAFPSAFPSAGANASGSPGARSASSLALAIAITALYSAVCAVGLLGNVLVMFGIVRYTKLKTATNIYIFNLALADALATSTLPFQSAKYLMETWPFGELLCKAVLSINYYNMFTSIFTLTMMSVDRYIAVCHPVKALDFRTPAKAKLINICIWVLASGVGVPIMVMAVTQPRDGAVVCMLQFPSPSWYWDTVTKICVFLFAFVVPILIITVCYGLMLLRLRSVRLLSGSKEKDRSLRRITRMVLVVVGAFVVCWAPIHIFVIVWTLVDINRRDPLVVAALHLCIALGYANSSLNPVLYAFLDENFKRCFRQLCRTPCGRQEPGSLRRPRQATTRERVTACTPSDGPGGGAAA

[3] = target: T3, H278N mutant mouse delta opioid receptor (mouse), P32300; experiment: competition vs 3H-naltrindole, COS-7 membranes
T3 chain: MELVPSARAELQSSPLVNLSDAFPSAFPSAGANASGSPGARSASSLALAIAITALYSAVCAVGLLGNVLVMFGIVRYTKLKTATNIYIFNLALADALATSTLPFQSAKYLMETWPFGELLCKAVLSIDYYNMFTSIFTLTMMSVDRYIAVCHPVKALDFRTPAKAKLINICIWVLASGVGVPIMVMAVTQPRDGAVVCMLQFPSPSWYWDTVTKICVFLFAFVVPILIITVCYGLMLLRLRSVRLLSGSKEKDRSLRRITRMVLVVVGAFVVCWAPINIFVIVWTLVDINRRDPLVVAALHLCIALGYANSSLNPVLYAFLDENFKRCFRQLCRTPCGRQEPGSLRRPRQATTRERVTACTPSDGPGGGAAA

[4] = target: T4, κ1-78/δ70-372 chimeric opioid receptor (mouse); experiment: competition vs [3H]DPDPE, COS-7 membranes
T4 chain: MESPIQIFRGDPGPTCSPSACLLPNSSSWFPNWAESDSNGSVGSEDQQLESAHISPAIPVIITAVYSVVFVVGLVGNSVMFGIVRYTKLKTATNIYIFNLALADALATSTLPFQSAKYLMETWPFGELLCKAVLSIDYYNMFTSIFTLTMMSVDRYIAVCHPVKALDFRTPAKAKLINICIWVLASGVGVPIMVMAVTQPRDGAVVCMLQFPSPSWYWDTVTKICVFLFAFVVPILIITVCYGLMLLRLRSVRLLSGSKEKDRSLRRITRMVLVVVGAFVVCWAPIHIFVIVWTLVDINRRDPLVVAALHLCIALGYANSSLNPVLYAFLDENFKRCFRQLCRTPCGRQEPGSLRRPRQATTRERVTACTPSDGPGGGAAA

[5] = target: T1, mouse delta opioid receptor (mORD1) …; experiment: radioligand binding, COS-7 membranes
[6] = target: T5, rat µ opioid receptor (rat), P33535; experiment: saturation binding, COS-7 membranes
T5 chain: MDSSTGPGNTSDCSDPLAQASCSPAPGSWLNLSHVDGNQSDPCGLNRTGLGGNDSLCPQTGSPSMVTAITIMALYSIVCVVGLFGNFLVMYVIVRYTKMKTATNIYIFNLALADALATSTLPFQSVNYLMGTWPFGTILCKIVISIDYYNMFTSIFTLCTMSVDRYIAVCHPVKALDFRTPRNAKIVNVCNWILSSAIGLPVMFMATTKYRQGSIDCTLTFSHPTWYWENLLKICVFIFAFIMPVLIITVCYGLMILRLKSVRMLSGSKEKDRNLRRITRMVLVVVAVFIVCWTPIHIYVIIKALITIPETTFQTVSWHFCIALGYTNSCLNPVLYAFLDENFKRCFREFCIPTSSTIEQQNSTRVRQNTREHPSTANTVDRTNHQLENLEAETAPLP

[7] = target: cloned human µ opioid receptor (human), P35372; experiment: saturation binding, Scatchard analysis, COS-7 membranes
Sequence of cloned human µ opioid receptor (human), P35372 (P35372 whole entry): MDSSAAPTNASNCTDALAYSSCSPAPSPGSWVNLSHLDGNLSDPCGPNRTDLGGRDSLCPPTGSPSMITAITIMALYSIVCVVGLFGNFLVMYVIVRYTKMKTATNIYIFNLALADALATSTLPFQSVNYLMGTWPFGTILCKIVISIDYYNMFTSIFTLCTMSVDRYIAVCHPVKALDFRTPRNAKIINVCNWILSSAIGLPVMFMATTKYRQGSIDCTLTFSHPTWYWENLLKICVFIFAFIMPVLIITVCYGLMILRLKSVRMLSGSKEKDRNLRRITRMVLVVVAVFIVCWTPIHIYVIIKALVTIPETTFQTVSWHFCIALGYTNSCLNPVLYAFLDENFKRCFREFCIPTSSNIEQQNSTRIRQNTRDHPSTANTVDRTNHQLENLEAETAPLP

[8] = target: T5, rat µ opioid receptor (rat), P33535; experiment: competition vs [3H]DAMGO, COS-7 membranes
[9] = target: T1, mouse delta opioid receptor (mORD1) …; experiment: competition vs [3H]naltrindole, COS-1 membranes
[10] = target: T1, mouse delta opioid receptor (mORD1) …; experiment: competition vs [3H]naltrindole, CHO-DG44 membranes

## Y[dS]GFLT [[D-Ser2, Leu5] enkephalin-Thr6 (DSLET)]
[1]
  inhibition of forskolin-stimulated cAMP formation: 70%
[2]
  EC50 to inhibit forskolin-stimulated cAMP accumulation: 30 nM
[3]
  Ki: 0.5 nM
[4]
  IC50: 2 nM

## YCGFC (modifications not checked) [[D-Pen2, D-Pen5]enkephalin (DPDPE)]
[5]
  average binding (fmol/mg protein): 1990

## YAGFG (modifications not checked) [[D-Ala2,MePhe4,Gly-ol5]enkephalin (DAMGO)]
[6]
  Kd: 0.57 nM
[7]
  Kd: 1 nM
[8]
  Ki: 2 nM

## YAGFL (modifications not checked) [DADL]
[9]
  IC50: 20 nM
[10]
  Ki: 0.74 nM
[8]
  Ki: 16 nM
